{"source": "paper PMC12218921", "about": "“An adaptive peptide-binding site in ubiquitin receptor hRpn13 revealed by structural studies” (Nature Communications, 2025)", "molecules": {"B1": {"name": "hRpn13_ΔMTT: hRpn13 Pru variant with ENT M1 – T3, ^aG, and ^bP deleted (protein)", "chain": "GSSGALFPSLVPGSRGASNKYLVEFRAGKMSLKGTTVTPDKRKGLVYIQQTDDSLIHFCWKDRTSGNVEDDLIIFPDDCEFKRVPQCPSGRVYVLKFKAGSKRLFFWMQEPKTDQDEEHCRKVNEYLNNPPMPGALGASGSSGHELSAL", "modifications": "left off: GST, N-terminal, cleaved", "notes": "hRpn13 Pru variant with ENT M1 – T3, ^aG, and ^bP deleted"}}, "system": "hRpn13 Pru", "experiment": "1H-15N HSQC NMR of 15N-labeled hRpn13 Pru (1–150)", "type": "binding, human", "settings": "0.1 mM 15N-labeled protein, 600 MHz, 25 °C, pH 6.5"}
{"molecule": "B1", "values": [{"measurement": "HSQC differences of hRpn13_ΔMTT versus hRpn13 (1–150)", "result": "changes for a subset of amino acids in the Pru helix and proteasome-binding surface"}]}
